The results in this text go back to US6512102.

The target of data set [1] is GSK3 (huGSK3myc), P49841.
The target of data set [2] is Axin.
In data set [3] the target is β-catenin.
β-catenin, sequence (P35222 2-781): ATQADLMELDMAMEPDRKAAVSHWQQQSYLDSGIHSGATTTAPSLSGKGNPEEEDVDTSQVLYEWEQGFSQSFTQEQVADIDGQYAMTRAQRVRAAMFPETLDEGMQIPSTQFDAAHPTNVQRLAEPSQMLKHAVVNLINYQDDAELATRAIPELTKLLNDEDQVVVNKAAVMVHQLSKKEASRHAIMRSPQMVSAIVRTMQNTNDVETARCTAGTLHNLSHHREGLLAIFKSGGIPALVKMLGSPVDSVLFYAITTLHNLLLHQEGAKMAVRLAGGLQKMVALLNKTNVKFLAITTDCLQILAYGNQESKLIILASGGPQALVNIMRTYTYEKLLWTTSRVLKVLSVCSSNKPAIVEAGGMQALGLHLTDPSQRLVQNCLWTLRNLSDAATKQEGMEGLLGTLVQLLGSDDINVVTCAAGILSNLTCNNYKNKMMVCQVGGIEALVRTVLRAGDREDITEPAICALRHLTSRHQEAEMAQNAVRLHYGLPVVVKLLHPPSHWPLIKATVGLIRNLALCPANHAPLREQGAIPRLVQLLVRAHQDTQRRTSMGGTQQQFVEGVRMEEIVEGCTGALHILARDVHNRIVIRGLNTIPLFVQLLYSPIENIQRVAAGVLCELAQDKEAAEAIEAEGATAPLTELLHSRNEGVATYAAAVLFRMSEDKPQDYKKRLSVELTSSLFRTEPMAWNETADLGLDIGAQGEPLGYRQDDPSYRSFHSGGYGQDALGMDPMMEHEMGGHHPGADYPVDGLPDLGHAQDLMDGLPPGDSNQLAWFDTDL

GSK3 (huGSK3myc), P49841, sequence (P49841 whole entry, looked up): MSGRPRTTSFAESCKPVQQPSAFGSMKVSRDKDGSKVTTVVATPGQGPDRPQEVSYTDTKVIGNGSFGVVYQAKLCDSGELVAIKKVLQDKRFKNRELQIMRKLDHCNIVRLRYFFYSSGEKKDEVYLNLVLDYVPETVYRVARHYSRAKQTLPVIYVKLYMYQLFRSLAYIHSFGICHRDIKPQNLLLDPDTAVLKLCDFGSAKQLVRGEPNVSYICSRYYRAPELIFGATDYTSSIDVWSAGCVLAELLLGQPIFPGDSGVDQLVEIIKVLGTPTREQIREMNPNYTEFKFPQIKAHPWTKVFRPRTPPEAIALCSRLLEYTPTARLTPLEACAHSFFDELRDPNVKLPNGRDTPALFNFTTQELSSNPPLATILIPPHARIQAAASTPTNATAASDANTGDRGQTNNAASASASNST

B1: C-terminally truncated CKIε (protein)
chain: MELRVGNKYRLGRKIGSGSFGDIYLGANIASGEEVAIKLECVKTKHPQLHIESKFYKMMQGGVGIPSIKWCGAEGDYNVMVMELLGPSLEDLFNFCSRKFSLKTVLLLADQMISRIEYIHSKNFIHRDVKPDNFLMGLGKKGNLVYIIDFGLAKKYRDARTHQHIPYRENKNLTGTARYASINTHLGIEQSRRDDLESLGYVLMYFNLGSLPWQGLKAATKRQKYERISEKKMSTPIEVLCKGYPSEFSTYLNFCRSLRFDDKPDYSYLRQLFRNLFHRQGFSYDYVFDWNMLKFGAARNPED
Turning to B1, the “in vitro kinase assay (phosphorylation of GSK3)” value in data set [1] is “A truncated mutant, CKIε, where the C-terminus was deleted had intact kinase activity. It was immunoprecipitated using anti-HA antibody and mixed with Immunoprecipitated GSK3”.

B2: mouse casein kinase I epsilon, HA-tagged (CKIε-HA) (protein)
chain: MELRVGNKYRLGRKIGSGSFGDIYLGANIASGEEVAIKLECVKTKHPQLHIESKFYKMMQGGVGIPSIKWCGAEGDYNVMVMELLGPSLEDLFNFCSRKFSLKTVLLLADQMISRIEYIHSKNFIHRDVKPDNFLMGLGKKGNLVYIIDFGLAKKYRDARTHQHIPYRENKNLTGTARYASINTHLGIEQSRRDDLESLGYVLMYFNLGSLPWQGLKAATKRQKYERISEKKMSTPIEVLCKGYPSEFSTYLNFCRSLRFDDKPDYSYLRQLFRNLFHRQGFSYDYVFDWNMLKFGAARNPEDVDRERREHEREERMGQLRGSATRALPPGPPTGATANRLRSAAEPVASTPASRIQQTGNTSPRAISRADRERKVSMRLHRGAPANVSSSDLTGRQEVSRLAASQTSVPFDHLGK
Regarding B2, the phosphorylation entry in data set [2] is “CKIε phosphorylates Axin”. For the same protein, the “in vitro kinase assay (phosphorylation of GSK3)” value in data set [1] is “either purified CKIε protein or immunoprecipitated CKIε phosphorylated purified GSK3 protein as well as immunoprecipitated GSK3 protein”. Moreover, the in vitro phosphorylation entry in data set [3] is given as “CKIε phosphorylates β-catenin in vitro”.
